Source: paper PMC5966032 (Nature, 2018)

Biological target: the molecule itself
Assay: crystal structure

B1: Δ25 construct of chicken ASIC1a (domain or fragment, UniProt Q1XA76 25-463, looked up)
chain: SSTLHGISHIFSYERLSLKRVVWALCFMGSLALLALVCTNRIQYYFLYPHVTKLDEVAATRLTFPAVTFCNLNEFRFSRVTKNDLYHAGELLALLNNRYEIPDTQTADEKQLEILQDKANFRNFKPKPFNMLEFYDRAGHDIREMLLSCFFRGEQCSPEDFKVVFTRYGKCYTFNAGQDGKPRLITMKGGTGNGLEIMLDIQQDEYLPVWGETDETSFEAGIKVQIHSQDEPPLIDQLGFGVAPGFQTFVSCQEQRLIYLPPPWGDCKATTGDSEFYDTYSITACRIDCETRYLVENCNCRMVHMPGDAPYCTPEQYKECADPALDFLVEKDNEYCVCEMPCNVTRYGKELSMVKIPSKASAKYLAKKYNKSEQYIGENILVLDIFFEALNYETIEQKKAYEVAGLLGDIGGQMGLFIGASILTVLELFDYAYEVIKHR
Question: Does B1 bind?
Answer: Result: binds
